Changes are numbered by the printed parent chain. In names and notes the source's numbering stands.
B1: chimeric anti-LTα antibody 2C8 (murine/human chimera) (antibody, human IgG1, kappa, V domains shown)
VH: EVQLQQSGPELVKPGASVKLSCKASGYTFTSYVIHWVKQKPGQGLEWIGYNNPYNDGTNYNEKFKGKATLTSDKSSSTAYMELSSLTSEDSAVYYCSRPTMLPWFAYWGQGTTLTVSA
VL: DIVMTQSHKFMSTSVGDRVSITCKASQAVSSAVAWYQQKPGQSPKLQIYSASHRYTGVPDRFTGSGSGTDFTFTISSVQAEDLAVYYCQQHYSTPWTFGGGTKVEIKR
notes: also called 2C8 chimera; 2C8.chimera
B2: humanized 2C8.v2 (antibody, IgG1, V domains shown)
VH: EVQLVESGGGLVQPGGSLRLSCAASGYTFTSYVIHWVRQAPGKGLEWVGYNNPYNDGTNYNEKFKGRATISSDKSKNTAYLQMNSLRAEDTAVYYCSRPTMLPWFAYWGQGTLVTVSS
VL: DIQMTQSPSSLSASVGDRVTITCRASQAVSSAVAWYQQKPGKAPKLQIYSASHRYTGVPSRFSGSGSGTDFTLTISSLQPEDFATYYCQQHYSTPWTFGQGTKVEIKR
notes: also called Version 2; wild-type 2C8.v2
B3: humanized 2C8.v7 (antibody, V domains shown)
VH: B2 VH
VL: B2 VL with Q47L
B4: humanized 2C8.v16 (antibody, V domains shown)
VH: B2 VH with A68F
VL: B2 VL with Q47L, Q90E, H91S
notes: HC v12 = HC v2 + A67F
B5: humanized 2C8.v12 (antibody, V domains shown)
VH: B2 VH with A68F
VL: B2 VL with Q47L
notes: HC v12 = HC v2 + A67F); also called Version 12
B6: humanized 3F12 version 8 (v5 with CDR-H3 G95A) (antibody, V domains shown)
VH: EVQLVESGGGLVQPGGSLRLSCAASGYTFSSYWIEWVRQAPGKGLEWVGEISPGSGSTNYNEEFKGRATFSADNSKNTAYLQMNSLRAEDTAVYYCADAYHGYWGQGTLVTVSS
VL: DIQMTQSPSSLSASVGDRVTITCKSSQSLLYSTNQKNFLAWYQQKPGKAPKLLIYWASTRDSGVPSRFSGSGSGTDFTLTISSLQPEDFATYYCQQYYSYPRTFGQGTKVEIK
B7: humanized 3F12 version 10 (v5 with CDR-H3 H100A) (antibody, V domains shown)
VH: B6 VH with A99G, H101A
VL: B6 VL
B8: humanized 3F12 v2 (antibody, V domains shown)
VH: B6 VH with A79L, A99G
VL: DIQMTQSPSSLSASVGDRVTITCKSSQSLLYSTNQKNFLAWYQQKPGKAPKLLIYWASTRDSGVPSRFSGSGSGTDFTLTISSLQPEDFATYYCQQYYSYPRTFGQGTKVEIKR
B9: humanized 3F12 v4 (antibody, V domains shown)
VH: B6 VH with F70I, A99G
VL: B8 VL
B10: humanized 3F12 v3 (antibody, V domains shown)
VH: B6 VH with F70I, N74K, A79L, A99G
VL: B8 VL

The binders below were run against T1, recombinant human lymphotoxin-α (LTα), homotrimer LTα3 (human, UniProt P01374 35-205) (assay: plate-based ELISA on human LTα, ratio to the chimera).
T1 construct: One molecule is used for 'LTα' (plate ELISA), 'rhLTα' (BIACORE, phage ELISA) and 'human LTα3'; also called human LTα3; rhLTα
T1 sequence (looked up): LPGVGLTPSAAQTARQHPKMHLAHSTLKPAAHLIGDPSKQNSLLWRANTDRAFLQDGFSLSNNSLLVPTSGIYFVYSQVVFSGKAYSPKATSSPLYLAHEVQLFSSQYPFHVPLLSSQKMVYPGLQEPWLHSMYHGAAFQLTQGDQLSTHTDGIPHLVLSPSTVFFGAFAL

Binder | ELISA IC50 ratio
B1 | 1
B2 | 1.7
B3 | 1.2
B4 | 0.6
B5 | 1

Each binder was assayed against T2, recombinant human lymphotoxin-α (LTα), homotrimer LTα3 (human) (UniProt P01374) (assay: plate-based ELISA against LTα).
T2 sequence (looked up): T1 sequence (looked up)

Binder | relative binding (EC50 of the variant / EC50 of version 5)
B6 | > 100
B7 | > 100

The binders below were run against T1, recombinant human lymphotoxin-α (LTα), … (assay: plate ELISA on coated LTα).

Binder | Relative binding (to the original chimera)
B8 | > 1000 x down
B9 | > 500 x down
B10 | > 1000 x down

Source: patent US20090285830A1 (published 2009)
